Drawing on the supplement of paper PMC12042874, this text covers amyloid nucleation score for 98 substances.

± gives the uncertainty stated by the source.

This data set in a line: amyloid nucleation score (Sup35N fusion, yeast selection) (log enrichment); library NNK3; higher = more nucleation; inactive = no reads after selection. An outline of the steps:
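Peptides of 20 random codons fused to Sup35N were expressed in psi-negative yeast, induced 24 hours with 100 μM copper sulfate, then grown 7 days at 30°C on medium lacking adenine and uracil. Input and output plasmid inserts were Illumina-sequenced. Nucleation score is the DiMSum log enrichment of output over input reads, centred on the mode score of non-aggregating sequences, excluding sequences with under 100 input reads. Random libraries had three technical output replicates.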
On to SHNVSTWRMICSWLVRPFIR, for which the amyloid nucleation score result is “inactive”.
For LWWISWRRGSQSMVVSG the value was “inactive”; for STTGWSMYYWSIRADREVTY, “inactive”; for PPCMYTMYCEYNVLQSSSKY, 1.64 ± 0.082.
For IEGTAMTVTFTFNPYPFHET the value was “inactive”; for SMCPPLQRG, “inactive”.
For NVHMMC the value was “inactive”.
For the substance LENSNFWSCSWISRYIYIRN, the amyloid nucleation score entry was “inactive”.
With LHIVNCCQPKHTRFVFQWYW, the amyloid nucleation score is 1.89 ± 0.1.
For TVTWFDINCMVGFLY the value was 0.431 ± 0.68; for VPKFVMDMIL, “inactive”; for NSWRHKMMQMKSYHSNVCIW, “inactive”.
For HSSVSMGLVGGSTE the value was “inactive”; for VIIYI, “inactive”.
For LSRFQVGFHQIDIMRGDVWK the value was “inactive”; for SQMSPSNDMWLALNV, “inactive”; for CQSPDALVRWGR, -0.087 ± 0.93.
Take MSSRPGFNT: the amyloid nucleation score result is “inactive”.
For VGAYYGMFNSLMSFLQWISQ the value was 0.733 ± 0.2; for GYILVLYADRAKICDKFYVG, 2.27 ± 0.05.
For IQRVGTKGDVISTFCNRQQL the value was “inactive”; for YVTSNSVDRTIKCSAFILIC, “inactive”.
On to RSLSRNFSLCMGGSDRSGGL, for which the amyloid nucleation score result was “inactive”.
For GIAIFTMDCGV the value was “inactive”; for VGTFRGSEGPRFVLVV, -0.486 ± 1.9.
FHWYFLCLAFLG: the amyloid nucleation score is 0.398 ± 0.3.
For EWISLQVKNLTVSTVMLCLE the value was “inactive”; for RRLPPIRCSHNLNSVPQD, “inactive”.
For FCSVIFLISIYCTRFSLVYD the value was “inactive”.
For the substance QLEYNYCDKLVT, the amyloid nucleation score entry was “inactive”.
To DICHWVEYFV belongs “inactive”; to VDSSGLV, “inactive”.
To VMRPIPMSLYLNNFNES belongs “inactive”; to RPFYLWNLNIICCPFIQTVK, 2.39 ± 0.072.
For LCLRRGGFVRIGVWVFVFYG the value was “inactive”; for NYNYNRSAHSGCPPGLEGVM, “inactive”; for KFMIVVKCSM, 0.745 ± 0.2.
For the substance HFCPVRKGGAGIRYFYCSCW, the amyloid nucleation score worked out at 1.7 ± 0.12.
For MGRISVLPYLKFSYAIWY the value was “inactive”; for WTEGST, “inactive”; for CCIKGHFPSSFGSWAKYLHV, “inactive”.
To NHFAAMLSCFSSRVVVTYQA belongs “inactive”; to RNLVWA, “inactive”.
To SYQDMLSYNRMR belongs “inactive”; to VVWNMYKFKACWYRDVTPLF, “inactive”.
Consider FASRIWSSTITSCHLLSGSL, for which the amyloid nucleation score entry is “inactive”.
CLTLYRHQ returned an amyloid nucleation score of 0.313 ± 0.54.
As for GNYVTVHIYVKAVFGNG, the amyloid nucleation score result is “inactive”.
To RSVTNGQSCLRTVGILSFLA belongs “inactive”.
To ILIRHDAMNRYPQC belongs “inactive”; to VNGFFLVACTCSYFNNRSSW, 1.57 ± 0.12; to FVSWWNRSYVCVWIKLMNWR, “inactive”.
To CYHAFRCSGLARACVENINW belongs “inactive”.
SRKWCQFYSCIIYTTNLLGR showed an amyloid nucleation score of 1.85 ± 0.069.
To YYMLWSKCCEYSAHRN belongs “inactive”; to VYYKVKEHVGWVFVSVVCIV, “inactive”.
For FAGCLGHPLERYVHLAWV, the amyloid nucleation score result was “inactive”.
To YCSCNEGGLDPSLTMTL belongs “inactive”; to YYVVGQPAASQK, “inactive”; to CVATNYSYCSIFLHRA, 2.01 ± 0.079.
For VIPFPFNLGDYCRMFDPRRS the value was “inactive”; for SRFYETDYSYFSIKSYDAGG, “inactive”; for NIDVYDLMRLSVFDNKMATG, “inactive”.
For WLIFELIVSELSTRHHKALD the value was “inactive”; for RMDETWNITRKNWQDSY, “inactive”; for RFYRCNYYRM, 2.17 ± 0.084.
With NNCTSTRSMVVGEYRKKGAL, the amyloid nucleation score is -0.46 ± 0.84.
To SWDHTVNKLGTPTVGSGSND belongs “inactive”; to PSRNYIVELS, “inactive”; to KTSAVRLATNIVLTFHSILY, “inactive”.
For GMPKSWYMPVRMMQASSSAF, the amyloid nucleation score entry was “inactive”.
VSHTIKAILFGFRRQDHLYF: the amyloid nucleation score entry is “inactive”.
With RSPTVL, the amyloid nucleation score entry is “inactive”.
For YMQQSR the value was “inactive”.
To VWSFGLLVS belongs -0.17 ± 1.1; to LPGINCARHK, -0.918 ± 1.4; to FRSVSLWSSN, “inactive”.
VSWHNILMWTRTPL: the amyloid nucleation score result is “inactive”.
To YRSKNFMIQRWTRVVLRAWM belongs “inactive”; to PWLSVSRVVVGRSLDGNNCP, “inactive”.
In the case of RYLDCFVVVLVSDFMLRYVS, the amyloid nucleation score entry was “inactive”.
Take ILCLVAVLGASRGYVMAEWY: the amyloid nucleation score entry was “inactive”.
To ANESMWYSLMLTVFVLAGCM belongs “inactive”; to RTLNYFSHVCQSSINWSSLV, 0.743 ± 0.16.
In the case of SGFVSWN, the amyloid nucleation score result was “inactive”.
Consider DGAVFRFNMGHYKYSLVEVM, for which the amyloid nucleation score result was “inactive”.
For IIQALVF the value was “inactive”; for RHSLMRDYYNFLMLDCTE, “inactive”; for VVLFKISSYPRHIHFGFHLL, “inactive”.
To KLPVKGRMPVVF belongs “inactive”; to NVLFRMTRHAYSKLTWLFKR, “inactive”.
For ENERGKKMSLGYGLELAGTG the value was “inactive”; for FMSFLICNRILWSGG, “inactive”.
Turning to TACQNDCVGG, the amyloid nucleation score entry is “inactive”.
For LDNKFSALGCFANARFK the value was “inactive”; for LFITLGAV, “inactive”; for MAINYTFFPPRLVT, “inactive”.
To ALQLHWYYRDTRRRCFTVCV belongs “inactive”.
